This note sets out measurements from publication PMC2568053, “Relevance of the Diversity among Members of the Trypanosoma Cruzi Trans-Sialidase Family Analyzed with Camelids Single-Domain Antibodies” (PLoS ONE, 2008).

To fix the notation:
B1: VHHSI52 (VHH)
VHH: GGGLVQAGGSLRLSCAASGRTFYNYAMGWFRQAPGKEREFVAAISWSGGSTLYTDSVKGRFTISRANGQNTVYLQMNSLKPEDTAVYYCAADADAQPMGIIENYDYWGQG
notes: also called clone SI52; not shown: His6, C-terminal, kept
B2: VHHSI57 (VHH)
VHH: B1 VHH with F22L, L52E, T54A, G68A, T71K, I100V
notes: also called clone SI57; not shown: His6, C-terminal, kept
B3: VHHSI96 (VHH)
VHH: B1 VHH with R20P, L52Y, T54A, G68A, Q69H
notes: also called clone SI96; not shown: His6, C-terminal, kept
B4: VHH clone WI58 (VHH)
VHH: GGGLVQAGGSLRLSCAASGLTLGNYAMGWFRQAPGKERELVAAISWSGGSTYYPDSVKGRFTISRDNAKNTVYLQMNSLKPEDTAVYYCAADGQLVPLPRLSDGVDYWGKG
notes: not shown: His6, C-terminal, kept
B5: VHHSI14 (VHH)
VHH: B1 VHH with T54A, G68A, S78K, I100V
notes: also called clone SI14; VHHS14; not shown: His6, C-terminal, kept

Where a chain is given by its changes, count along the chain named.

In the first assay the target is recombinant TcTS clone TcTS-24 (Trypanosoma cruzi (Cl-Brener strain)).
Assay: not given
Settings: not given
As for B1, the other was 98 % inhibition.
Still for that read-out and setting: the value for B2 was 98.4 % inhibition; that for B3 was 94.2 % inhibition.

The next assay concerns the target recombinant TcTS clone TcTS-49 (Trypanosoma cruzi (Cl-Brener strain)).
Assay: not given
Settings: not given
On to B1, for which the other was 49 % inhibition.
As to B2, the other was 51.1 % inhibition.
Still for that read-out and setting: the value for B3 was 24.4 % inhibition.

In the next assay the target is recombinant TcTS clone TcTS-46 (Trypanosoma cruzi (Cl-Brener strain)).
Assay: not given
Settings: not given
Turning to B1, the other was found to be 38.9 % inhibition.
Turning to B2, the other was 31.7 % inhibition.
The same measure, in the same setting: the value for B3 was 34.8 % inhibition.

The target in the next assay is recombinant TcTS clone TcTS-12 (Trypanosoma cruzi (Cl-Brener strain)).
Assay: not given
Settings: not given
Consider B1, for which the other came to 57.2 % inhibition.
Same read-out and setting: next, B2: 57.2 % inhibition; B3: 59.5 % inhibition.

The next assay deals with recombinant TcTS clone TcTS-15 (Trypanosoma cruzi (Cl-Brener strain)).
Assay: not given
Settings: not given
On to B1, for which the other worked out at 68.7 % inhibition.
With B2, the other is 81.2 % inhibition.
For the molecule B3, the other was 67.4 % inhibition.

In another assay the target is T1, recombinant Trypanosoma cruzi trans-sialidase TcTS611/2 (Trypanosoma cruzi, clone TcTS611/2 …, UniProt Q26966). Description: cell-based or functional assay.
Settings: not given
B1: the other was 81.3 % inhibition.
Still for that read-out and setting: next, B2: 83.3 % inhibition.
In the case of B3, the other came to 80.5 % inhibition.

Another assay has as its target T1, recombinant Trypanosoma cruzi …. Description: far-Western, overlay or dot blot; 300 ng of each His-tagged VHH spotted on nitrocellulose, probed with native TcTS611/2, revealed with rabbit anti-TcTS serum and HRP secondary. The settings on record: both partners purified.
Consider B4, for which the binding result is “binds”.

For another assay the target is unchanged. Description: IAsys biosensor. The settings on record: both partners purified.
Usually Kd stands for a measure of binding affinity in units of concentration. The term koff denotes the first-order rate constant of dissociation. For orientation: kon means the rate constant with which the complex forms. On to B1, for which the Kd stood at 69 nM, the koff turned out to be 0.0103 s⁻¹ and the kon came out at 149000 M⁻¹ s⁻¹.
The corresponding values for B2 are 86.3 nM, 0.0143 s⁻¹ and 165000 M⁻¹ s⁻¹.
As to B3, the equilibrium dissociation constant (Kd) amounted to 48.4 nM, the off-rate (koff) came to 0.017 s⁻¹ and the kon came to 352000 M⁻¹ s⁻¹.
In the same order, the values of B5 are 22.3 nM, 0.00265 s⁻¹ and 119000 M⁻¹ s⁻¹.
